From patent US20110014182A1 (published 2011)

Tests used:
[1] = target: T1, human β-amyloid (1-40) peptide (human, UniProt P05067 672-711); assay: SPR (Biacore T100), antibody captured on anti-human IgG, beta amyloid (1-40), 37°C
T1 construct: domain: β-amyloid (1-40); Used free in solution, coated on plates, or N- or C-terminally biotinylated, as told under assay; also called Aβ peptide (1-40); Aβ1-40
Method: Anti-human IgG (Biacore BR-1008-39) was coupled to a CM5 biosensor chip by primary amine coupling. The anti-beta amyloid antibodies were captured on this surface. Beta amyloid (1-40) was then passed over at 256, 64, 16, 4 and 1 nM, with a 0 nM (ie buffer alone passed over the captured antibody surface) used for double referencing. […] The data was analysed using the 1:1 model inherent to the T100. The run was carried out at 25° C. and 37° C. using HBS-EP as the running buffer.
From this panel some constructs were also assessed for binding kinetics at physiological temperature.

[2] = target: T1, human β-amyloid (1-40) peptide; assay: competition ELISA, antibody pre-incubated with biotinylated β-amyloid 1-40; competitor immobilised mouse 6F6; Exp 1
Method: (§1) 6F6c and humanised antibodies H11L2, H11L9, H11L10, H11L12 and H11L13 were assessed for their ability to bind Aβ1-40 peptide in solution and inhibit the interaction of human Aβ1-40 peptide with mouse 6F6 monoclonal antibody in a competition ELISA. A constant concentration of biotinylated β-amyloid 1-40 was pre-incubated with serial diluted amounts of humanised 6F6 antibody variants. The mixture including complexed and free amyloid was then added to wells containing immobilised mouse 6F6 monoclonal antibody and incubated for 15 minutes at room temperature. Plates were washed and the amount of free β-amyloid that was still available for binding the immobilised parental 6F6 monoclonal antibody was then detected using streptavidin-HRP conjugate.
(§2) All humanised variants were able to effectively compete for binding to 6F6 parental monoclonal antibody with very similar IC50 values.

[3] = target: T1, human β-amyloid (1-40) peptide; assay: competition ELISA, antibody pre-incubated with biotinylated β-amyloid 1-40; competitor immobilised mouse 6F6; Exp 2
Method: as §1, §2

[4] = target: T1, human β-amyloid (1-40) peptide; assay: SPR (Biacore T100), antibody captured on protein A, human β-amyloid 1-40 at 256-2 nM, 25°C, mean of three experiments
Method: The affinity of selected heavy and light chain combinations was determined using a Biacore T100 instrument. Three independent experiments were performed using humanised antibody immobilised via protein A surface Biacore chips and injection of β-amyloid 1-40 peptides. The chimeric molecule of 6F6 served as a reference molecule. For this Protein A was immobilised on a CM5 chip by primary amine coupling in accordance with manufactures recommendations. Anti-β-amyloid antibodies were captured on this surface and after a period of stabilisation human β-amyloid 1-40 was passed over at concentrations 256-2 nM in halving dilutions. A buffer injection over the captured antibody surface was used to double reference the data set in accordance with Biacore best practice. […] The work was carried out in HBS-EP at 25° C. Results are summarised in Table 13 as the mean of all three experiments.

[5] = target: T1, human β-amyloid (1-40) peptide; assay: ELISA on human Aβ peptide (1-40), in combination with H11
[6] = target: T1, human β-amyloid (1-40) peptide; assay: ELISA on human Aβ peptide (1-40)

T1 sequence (P05067 672-711 limits assumed): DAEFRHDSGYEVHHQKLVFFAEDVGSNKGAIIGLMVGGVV

B1: humanised de-immunised construct H48L17 (antibody, name in Kabat numbering, V domains shown)
VH: QVQLVQSGAEVKEPGASVKVSCKGSGFNIHVYYVHWLRQLPEKGLEWIGRIDPENGETIYTPKFQDKATLTVDTSTDTAYMELSSLRSEDTAVYYCVSSGYWGQGTLVTVSS
VL: DIVMTQSPLSNPVTPGEPASISCRSSKSLLHRNGITYLYWYLQKPGQSPQLLIYQMSHLASGVPDRFSSSGSGTDFTLKISRVEAEDVGVYYCAQNLELWTFGQGTKVEIK
Kd [1]: 4.72 nM

B2: humanised antibody H11L2 (antibody, human IgG1, kappa, name in Kabat numbering)
heavy: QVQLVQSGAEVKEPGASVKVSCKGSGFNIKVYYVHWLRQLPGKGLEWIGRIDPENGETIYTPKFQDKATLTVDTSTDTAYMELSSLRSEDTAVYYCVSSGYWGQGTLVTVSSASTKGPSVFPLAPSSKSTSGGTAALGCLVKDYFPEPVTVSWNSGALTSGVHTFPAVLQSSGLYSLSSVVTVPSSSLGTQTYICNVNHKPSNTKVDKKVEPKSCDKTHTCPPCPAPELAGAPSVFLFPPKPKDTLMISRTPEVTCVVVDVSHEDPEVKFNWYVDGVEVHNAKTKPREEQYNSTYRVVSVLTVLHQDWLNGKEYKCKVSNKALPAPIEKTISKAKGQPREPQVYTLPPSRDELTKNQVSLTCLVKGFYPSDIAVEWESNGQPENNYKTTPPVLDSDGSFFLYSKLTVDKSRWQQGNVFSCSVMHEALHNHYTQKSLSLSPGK
light: DIVMTQSPLSLPVTPGEPASISCRSSKSLLHRNGITYLYWYLQKPGQSPQLLIYQMSNLASGVPDRFSSSGSGTDFTLKISRVEAEDVGVYYCAQNLELWTFGQGTKVEIKRTVAAPSVFIFPPSDEQLKSGTASVVCLLNNFYPREAKVQWKVDNALQSGNSQESVTEQDSKDSTYSLSSTLTLSKADYEKHKVYACEVTHQGLSSPVTKSFNRGEC
notes: Human IgG1 Fc mutated, human kappa
IC50 [2]: 0.862 µg/mL
IC50 [3]: 0.578 µg/mL
Kd [4]: 9.57 nM

B3: humanised VL variant L4 in combination with H11 (antibody, human IgG1, kappa, name in Kabat numbering, V domains shown)
VH: QVQLVQSGAEVKEPGASVKVSCKGSGFNIKVYYVHWLRQLPGKGLEWIGRIDPENGETIYTPKFQDKATLTVDTSTDTAYMELSSLRSEDTAVYYCVSSGYWGQGTLVTVSS
VL: DIVMTQSPLSLPVTPGEPASISCRSSKSLLHRNGITYLYWYLQKPGQSPQLLIYQMSNLASGVPDRFTGSGSGTDFTLKISRVEAEDVGVYYCAQNLELWTFGQGTKVEIKR
notes: Kabat numbering
binding result [5]: binds

B4: humanised VL variant L7 in combination with H11 (antibody, human IgG1, kappa, name in Kabat numbering, V domains shown)
VH: QVQLVQSGAEVKEPGASVKVSCKGSGFNIKVYYVHWLRQLPGKGLEWIGRIDPENGETIYTPKFQDKATLTVDTSTDTAYMELSSLRSEDTAVYYCVSSGYWGQGTLVTVSS
VL: DIVMTQSPLSLPVTPGEPASISCRSSKSLLHRNGITYLYWYLQKPGQPPQLLIYQMSNLASGVPDRFSSSGSGTDFTLKISRVEAEDVGVYYCAQNLELWTFGQGTKVEIKR
notes: Kabat numbering
binding result [5]: binds

B5: humanised VH variant H27 in combination with L2 light chain (antibody, human IgG1, kappa, name in Kabat numbering, V domains shown)
VH: QVQLVQSGAEVKEPGASVKVSCKGSGFNIKVYYVHWLRQAPGKGLEWMGRIDPENGETIYTPKFQDKATMTVDTSTDTAYMELSSLRSEDTAVYYCVSSGYWGQGTLVTVSS
VL: DIVMTQSPLSLPVTPGEPASISCRSSKSLLHRNGITYLYWYLQKPGQSPQLLIYQMSNLASGVPDRFSSSGSGTDFTLKISRVEAEDVGVYYCAQNLELWTFGQGTKVEIKR
notes: Kabat numbering
binding result [6]: binds

B6: humanised VH variant H25 in combination with L2 light chain (antibody, human IgG1, kappa, name in Kabat numbering, V domains shown)
VH: QVQLVQSGAEVKKPGASVKVSCKGSGFNIKVYYVHWLRQAPGKGLEWIGRIDPENGETIYTPKFQDRVTLTEDTSTDTAYMELSSLRSEDTAVYYCVSSGYWGQGTLVTVSS
VL: DIVMTQSPLSLPVTPGEPASISCRSSKSLLHRNGITYLYWYLQKPGQSPQLLIYQMSNLASGVPDRFSSSGSGTDFTLKISRVEAEDVGVYYCAQNLELWTFGQGTKVEIKR
notes: Kabat numbering
binding result [6]: binds

B7: humanised antibody H11L10 (antibody, human IgG1, kappa, name in Kabat numbering)
heavy: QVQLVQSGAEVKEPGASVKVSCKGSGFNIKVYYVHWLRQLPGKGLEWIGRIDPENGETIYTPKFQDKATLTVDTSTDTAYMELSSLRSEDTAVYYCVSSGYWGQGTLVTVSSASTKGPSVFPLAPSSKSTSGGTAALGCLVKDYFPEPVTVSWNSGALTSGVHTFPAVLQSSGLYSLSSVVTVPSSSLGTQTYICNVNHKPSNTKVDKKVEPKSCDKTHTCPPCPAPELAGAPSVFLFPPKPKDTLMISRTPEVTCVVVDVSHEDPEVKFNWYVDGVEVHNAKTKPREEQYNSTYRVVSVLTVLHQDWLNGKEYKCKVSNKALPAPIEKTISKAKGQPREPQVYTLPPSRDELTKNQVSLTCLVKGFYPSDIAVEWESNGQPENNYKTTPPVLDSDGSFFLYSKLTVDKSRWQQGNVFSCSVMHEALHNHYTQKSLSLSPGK
light: DIVMTQSALSLPVTPGEPASISCRSSKSLLHRNGITYLYWYLQKPGQSPQLLIYQMSNLASGVPDRFSSSGSGTDFTLKISRVEAEDVGVYYCAQNLELWTFGQGTKVEIKRTVAAPSVFIFPPSDEQLKSGTASVVCLLNNFYPREAKVQWKVDNALQSGNSQESVTEQDSKDSTYSLSSTLTLSKADYEKHKVYACEVTHQGLSSPVTKSFNRGEC
IC50 [2]: 0.622 µg/mL
Kd [4]: 5.57 nM

B8: humanised VH variant H24 in combination with L2 light chain (antibody, human IgG1, kappa, name in Kabat numbering, V domains shown)
VH: QVQLVQSGAEVKKPGASVKVSCKGSGFNIKVYYVHWLRQAPGKGLEWMGRIDPENGETIYTPKFQDRVTMTEDTSSNTAYMELSSLRSEDTAVYYCVSSGYWGQGTLVTVSS
VL: DIVMTQSPLSLPVTPGEPASISCRSSKSLLHRNGITYLYWYLQKPGQSPQLLIYQMSNLASGVPDRFSSSGSGTDFTLKISRVEAEDVGVYYCAQNLELWTFGQGTKVEIKR
notes: Kabat numbering
binding result [6]: binds

B9: humanised VH variant H21 in combination with L2 light chain (antibody, human IgG1, kappa, name in Kabat numbering, V domains shown)
VH: QVQLVQSGAEVKKPGASVKVSCKGSGFNIKVYYVHWLRQLPGKGLEWMGRIDPENGETIYTPKFQDRVTMTEDTSTDTAYMELSSLRSEDTAVYYCVSSGYWGQGTLVTVSS
VL: DIVMTQSPLSLPVTPGEPASISCRSSKSLLHRNGITYLYWYLQKPGQSPQLLIYQMSNLASGVPDRFSSSGSGTDFTLKISRVEAEDVGVYYCAQNLELWTFGQGTKVEIKR
binding result [6]: binds

B10: humanised antibody H11L13 (antibody, human IgG1, kappa, name in Kabat numbering)
heavy: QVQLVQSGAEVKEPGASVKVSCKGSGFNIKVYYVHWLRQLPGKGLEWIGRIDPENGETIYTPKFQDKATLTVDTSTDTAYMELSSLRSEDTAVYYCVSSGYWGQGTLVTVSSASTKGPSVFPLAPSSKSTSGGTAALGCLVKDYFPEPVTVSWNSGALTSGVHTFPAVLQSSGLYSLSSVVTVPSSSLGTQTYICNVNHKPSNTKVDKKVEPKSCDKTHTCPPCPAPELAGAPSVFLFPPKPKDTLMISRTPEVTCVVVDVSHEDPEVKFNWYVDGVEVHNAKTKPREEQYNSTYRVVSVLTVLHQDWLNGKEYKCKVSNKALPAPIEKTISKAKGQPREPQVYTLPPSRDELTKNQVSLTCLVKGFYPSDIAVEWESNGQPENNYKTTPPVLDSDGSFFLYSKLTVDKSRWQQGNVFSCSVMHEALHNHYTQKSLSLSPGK
light: DIVMTQSALSLPVTPGEPASISCRSSKSLLHRNGITYLYWYLQKPGQPPQLLIYQMSNLASGVPDRFSGSGSGTDFTLKISRVEAEDVGVYYCAQNLELWTFGQGTKVEIKRTVAAPSVFIFPPSDEQLKSGTASVVCLLNNFYPREAKVQWKVDNALQSGNSQESVTEQDSKDSTYSLSSTLTLSKADYEKHKVYACEVTHQGLSSPVTKSFNRGEC
IC50 [2]: 0.616 µg/mL
IC50 [3]: 0.531 µg/mL
Kd [4]: 7.41 nM

B11: humanised VH variant H26 in combination with L2 light chain (antibody, human IgG1, kappa, name in Kabat numbering, V domains shown)
VH: QVQLVQSGAEVKKPGASVKVSCKGSGFNIKVYYVHWLRQAPGKGLEWIGRIDPENGETIYTPKFQDRVTLTEDTSSDTAYMELSSLRSEDTAVYYCVSSGYWGQGTLVTVSS
VL: DIVMTQSPLSLPVTPGEPASISCRSSKSLLHRNGITYLYWYLQKPGQSPQLLIYQMSNLASGVPDRFSSSGSGTDFTLKISRVEAEDVGVYYCAQNLELWTFGQGTKVEIKR
notes: Kabat numbering
binding result [6]: binds

B12: humanised VH variant H29 in combination with L2 light chain (antibody, human IgG1, kappa, name in Kabat numbering)
heavy: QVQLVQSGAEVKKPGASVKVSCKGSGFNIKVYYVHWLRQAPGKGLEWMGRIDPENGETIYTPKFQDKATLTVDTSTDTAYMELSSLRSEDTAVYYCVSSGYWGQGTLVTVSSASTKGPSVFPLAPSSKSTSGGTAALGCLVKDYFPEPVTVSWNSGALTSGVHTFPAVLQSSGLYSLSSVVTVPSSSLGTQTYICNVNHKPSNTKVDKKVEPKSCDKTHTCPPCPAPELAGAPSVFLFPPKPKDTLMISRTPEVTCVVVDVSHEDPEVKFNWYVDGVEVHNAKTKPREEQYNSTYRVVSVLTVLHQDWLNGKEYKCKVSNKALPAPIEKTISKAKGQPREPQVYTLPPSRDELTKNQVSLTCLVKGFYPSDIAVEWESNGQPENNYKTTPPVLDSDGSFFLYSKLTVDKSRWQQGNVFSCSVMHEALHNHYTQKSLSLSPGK
light: DIVMTQSPLSLPVTPGEPASISCRSSKSLLHRNGITYLYWYLQKPGQSPQLLIYQMSNLASGVPDRFSSSGSGTDFTLKISRVEAEDVGVYYCAQNLELWTFGQGTKVEIKRTVAAPSVFIFPPSDEQLKSGTASVVCLLNNFYPREAKVQWKVDNALQSGNSQESVTEQDSKDSTYSLSSTLTLSKADYEKHKVYACEVTHQGLSSPVTKSFNRGEC
notes: Kabat numbering
binding result [6]: binds

B13: humanised VH variant H28 in combination with L2 light chain (antibody, human IgG1, kappa, name in Kabat numbering)
heavy: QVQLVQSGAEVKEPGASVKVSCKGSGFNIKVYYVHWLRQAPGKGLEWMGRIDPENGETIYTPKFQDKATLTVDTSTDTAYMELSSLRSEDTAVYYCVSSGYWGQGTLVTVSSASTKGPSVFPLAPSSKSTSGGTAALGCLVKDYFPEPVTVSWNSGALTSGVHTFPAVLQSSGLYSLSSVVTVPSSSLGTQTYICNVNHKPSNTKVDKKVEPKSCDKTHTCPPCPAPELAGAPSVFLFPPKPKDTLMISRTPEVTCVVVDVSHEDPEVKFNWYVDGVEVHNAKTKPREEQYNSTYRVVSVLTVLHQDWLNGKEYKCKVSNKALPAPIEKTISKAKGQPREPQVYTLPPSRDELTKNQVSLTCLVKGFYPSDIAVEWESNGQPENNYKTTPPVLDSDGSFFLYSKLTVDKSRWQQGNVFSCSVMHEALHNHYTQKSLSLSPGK
light: DIVMTQSPLSLPVTPGEPASISCRSSKSLLHRNGITYLYWYLQKPGQSPQLLIYQMSNLASGVPDRFSSSGSGTDFTLKISRVEAEDVGVYYCAQNLELWTFGQGTKVEIKRTVAAPSVFIFPPSDEQLKSGTASVVCLLNNFYPREAKVQWKVDNALQSGNSQESVTEQDSKDSTYSLSSTLTLSKADYEKHKVYACEVTHQGLSSPVTKSFNRGEC
notes: Kabat numbering
binding result [6]: binds

B14: humanised VL variant L6 in combination with H11 (antibody, human IgG1, kappa, name in Kabat numbering)
heavy: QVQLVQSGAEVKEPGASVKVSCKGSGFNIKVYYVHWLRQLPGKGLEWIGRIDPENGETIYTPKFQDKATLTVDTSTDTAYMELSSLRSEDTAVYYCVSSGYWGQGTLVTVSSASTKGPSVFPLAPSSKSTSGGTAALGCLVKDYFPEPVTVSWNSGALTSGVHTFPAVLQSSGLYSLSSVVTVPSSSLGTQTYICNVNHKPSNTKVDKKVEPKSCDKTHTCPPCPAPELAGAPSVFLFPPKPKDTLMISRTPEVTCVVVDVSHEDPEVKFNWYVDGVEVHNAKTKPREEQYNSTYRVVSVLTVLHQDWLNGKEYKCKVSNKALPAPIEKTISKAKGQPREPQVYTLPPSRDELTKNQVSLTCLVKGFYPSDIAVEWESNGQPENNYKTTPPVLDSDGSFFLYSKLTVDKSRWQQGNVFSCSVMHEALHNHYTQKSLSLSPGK
light: DIVMTQSPLSLPVTPGEPASISCRSSKSLLHRNGITYLYWYLQKPGQPPQLLIYQMSNLASGVPDRFTGSGSGTDFTLKISRVEAEDVGVYYCAQNLELWTFGGGTKLEIKRTVAAPSVFIFPPSDEQLKSGTASVVCLLNNFYPREAKVQWKVDNALQSGNSQESVTEQDSKDSTYSLSSTLTLSKADYEKHKVYACEVTHQGLSSPVTKSFNRGEC
notes: Kabat numbering
binding result [5]: binds

B15: humanised VH variant H23 in combination with L2 light chain (antibody, human IgG1, kappa, name in Kabat numbering, V domains shown)
VH: QVQLVQSGAEVKKPGASVKVSCKGSGFNIKVYYVHWLRQAPGKGLEWIGRIDPENGETIYTPKFQDRVTMTEDTSTDTAYMELSSLRSEDTAVYYCVSSGYWGQGTLVTVSS
VL: DIVMTQSPLSLPVTPGEPASISCRSSKSLLHRNGITYLYWYLQKPGQSPQLLIYQMSNLASGVPDRFSSSGSGTDFTLKISRVEAEDVGVYYCAQNLELWTFGQGTKVEIKR
notes: Kabat numbering
binding result [6]: binds

B16: humanised VL variant L8 in combination with H11 (antibody, human IgG1, kappa, name in Kabat numbering)
heavy: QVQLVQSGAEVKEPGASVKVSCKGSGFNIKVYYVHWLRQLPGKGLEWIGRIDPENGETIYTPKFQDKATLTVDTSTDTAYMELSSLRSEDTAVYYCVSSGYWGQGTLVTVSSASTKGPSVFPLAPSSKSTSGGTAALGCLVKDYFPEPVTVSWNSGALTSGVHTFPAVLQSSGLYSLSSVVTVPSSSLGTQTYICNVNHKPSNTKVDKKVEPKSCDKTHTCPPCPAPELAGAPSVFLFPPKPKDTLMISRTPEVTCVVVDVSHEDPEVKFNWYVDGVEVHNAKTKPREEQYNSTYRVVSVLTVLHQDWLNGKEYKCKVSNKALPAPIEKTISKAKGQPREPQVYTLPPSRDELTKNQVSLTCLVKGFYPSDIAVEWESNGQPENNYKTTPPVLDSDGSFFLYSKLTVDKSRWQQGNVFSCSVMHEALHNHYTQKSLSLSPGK
light: DIVMTQSPLSLPVTPGEPASISCRSSKSLLHRNGITYLYWYLQKPGQPPQLLIYQMSNLASGVPDRFTGSGSGTDFTLKISRVEAEDVGVYYCAQNLELWTFGQGTKVEIKRTVAAPSVFIFPPSDEQLKSGTASVVCLLNNFYPREAKVQWKVDNALQSGNSQESVTEQDSKDSTYSLSSTLTLSKADYEKHKVYACEVTHQGLSSPVTKSFNRGEC
notes: Kabat numbering
binding result [5]: binds

B17: humanised antibody H11L12 (antibody, human IgG1, kappa, name in Kabat numbering)
heavy: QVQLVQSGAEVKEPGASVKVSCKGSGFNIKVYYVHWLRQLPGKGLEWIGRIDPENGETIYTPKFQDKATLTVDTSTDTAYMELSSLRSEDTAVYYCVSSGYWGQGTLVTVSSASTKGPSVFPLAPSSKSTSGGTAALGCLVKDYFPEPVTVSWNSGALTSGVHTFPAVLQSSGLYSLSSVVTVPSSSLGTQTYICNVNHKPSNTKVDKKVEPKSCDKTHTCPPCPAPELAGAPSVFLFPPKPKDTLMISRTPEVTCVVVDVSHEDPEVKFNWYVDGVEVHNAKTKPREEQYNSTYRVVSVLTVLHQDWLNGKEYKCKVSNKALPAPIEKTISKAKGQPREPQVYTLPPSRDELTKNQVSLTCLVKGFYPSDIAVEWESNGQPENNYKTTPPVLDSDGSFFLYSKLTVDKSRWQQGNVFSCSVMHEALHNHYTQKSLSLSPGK
light: DIVMTQSPLSNPVTPGEPASISCRSSKSLLHRNGITYLYWYLQKPGQPPQLLIYQMSNLASGVPDRFSGSGSGTDFTLKISRVEAEDVGVYYCAQNLELWTFGQGTKVEIKRTVAAPSVFIFPPSDEQLKSGTASVVCLLNNFYPREAKVQWKVDNALQSGNSQESVTEQDSKDSTYSLSSTLTLSKADYEKHKVYACEVTHQGLSSPVTKSFNRGEC
IC50 [2]: 0.561 µg/mL
IC50 [3]: 0.549 µg/mL
Kd [4]: 6.95 nM
